# Measurements taken from publication PMC9872604, “Targeting Multidrug-Recalcitrant Pseudomonas aeruginosa Biofilms: Combined-Enzyme Treatment Enhances Antibiotic Efficacy” (Antimicrobial Agents and Chemotherapy, 2023).
# Experiments:
# purified protein [1] = substrate: CCCCCCCCCC(=O)CC(=O)N[C@H]1CCOC1=O; experiment: purified protein; type: biochemical, Ochrobactrum sp. T63; conditions: 50 mM sodium phosphate pH 6.8, 37 °C, 10 min, 5% methanol substrate
# purified protein [2] = substrate: CCCC(=O)N[C@H]1CCOC1=O; experiment: purified protein; type: biochemical, Ochrobactrum sp. T63; conditions: 50 mM sodium phosphate pH 6.8, 37 °C, 10 min, 5% methanol substrate
protein,measurement,setting,value
"AidH (Ochrobactrum sp. T63) (protein, full aidH gene in pET28a(+) (BamHI/HindIII), His-tagged, expressed in E. coli BL21(DE3), Ni-NTA and size exclusion purified) MTINYHELETSHGRIAVRESEGEGAPLLMIHGNSSSGAIFAPQLEGEIGKKWRVIAPDLPGHGKSTDAIDPDRSYSMEGYADAMTEVMQQLGIADAVVFGWSLGGHIGIEMIARYPEMRGLMITGTPPVAREEVGQGFKSGPDMALAGQEIFSERDVESYARSTCGEPFEASLLDIVARTDGRARRIMFEKFGSGTGGNQRDIVAEAQLPIAVVNGRDEPFVELDFVSKVKFGNLWEGKTHVIDNAGHAPFREAPAEFDAYLARFIRDCTQ",Km,purified protein [1],240 ± 30 µM
same,kcat,purified protein [1],29.4 ± 1.7 s⁻¹
same,Km,purified protein [2],250 ± 30 µM
same,kcat,purified protein [2],39.8 ± 1.3 s⁻¹
